Patent US20200062844A1 (Regeneron, published 2020)
Blank lines part the entries; values can stand above or below the binder they belong to.

What was measured:
[1] = target: T1, human CD3 expressed in Jurkat cells (human, UniProt P07766 23-207; P04234 22-171; P20963 22-164; P09693 23-182); assay: cell-based or functional assay
[2] = target: T2, human FcεR1α expressed on cells (human, UniProt P12319 26-257); assay: cell-based or functional assay
T2 sequence (looked up): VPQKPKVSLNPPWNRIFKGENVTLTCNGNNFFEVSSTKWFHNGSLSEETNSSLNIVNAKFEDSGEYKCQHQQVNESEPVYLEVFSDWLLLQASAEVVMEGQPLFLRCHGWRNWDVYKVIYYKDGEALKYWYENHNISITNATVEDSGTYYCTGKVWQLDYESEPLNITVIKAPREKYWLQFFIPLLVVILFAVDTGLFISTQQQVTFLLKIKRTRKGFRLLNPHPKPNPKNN

[3] = target: T2, human FcεR1α expressed on cells; assay: cell-based or functional assay; remark: listed apart in the source
[4] = target: T1, human CD3 expressed in Jurkat cells; assay: flow cytometry, 70 nM antibody on Jurkat/NFAT-luc cells, No IgE
Method: (§1) For flow cytometry analysis, HEK293, HEK293/hFcεR1α/hFcεR1β/hFcεR1γ and HEK293/mf FcεR1α/hFcεR1β/hFcεR1γ cells were collected after dissociation using Enzyme Free Dissociation Buffer (Millipore Cat# S-004), and the cells were pre-incubated with or without 70 nM human IgE, for 30 minutes on ice in FACS buffer (PBS, without Ca⁺⁺ and Mg⁺⁺, (Irvine Scientific, Cat#9240) containing 2% FBS). Jurkat/NFAT-luc cells were also collected. The antibodies at the concentration of 70 nM were then added to 1×10⁶ cells/well of each cell type at 4° C. for 30 minutes. […] Cells were fixed using BD CytoFix™ (Becton Dickinson, Cat. #554655) and analyzed on Accuri™ C6 (BD) or CytoFLEX Flow cytometer (Beckman Coulter). Unstained and secondary antibody alone controls were also tested for all cell lines and a sample was evaluated for viability using the Far Red Fluo viability dye (Thermo Fisher, Cat#L10120) according to the manufacturer's protocol. The results were analyzed using FlowJo software (version 10.0.8, FlowJo) to determine the geometric means of fluorescence for viable cells and the binding ratio was calculated with the mean fluorescence intensity (MFI) of the experimental condition normalized by the MFI of the unstained respective cells.

[5] = target: T2, human FcεR1α expressed on cells; assay: flow cytometry, 70 nM antibody on HEK293/hFcεR1α/hFcεR1β/hFcεR1γ cells, No IgE
Method: as §1

[6] = target: T3, monkey (cynomolgus) FcεR1α expressed on cells (cynomolgus); assay: flow cytometry, 70 nM antibody on HEK293/mfFcεR1α/hFcεR1β/hFcεR1γ cells, No IgE
T3 construct: range 4-260; On HEK293 cells, co-expressed with human FcεR1β and FcεR1γ; also called mfFcεR1α; HEK293/mfFcεR1α/hFcεR1β/hFcεR1γ cells
Method: as §1

[7] = target: T4, hFcεR1α.MMH (human); assay: SPR (Biacore 8k), antibody captured on anti-human Fc, hFcεR1α.MMH injected, 25°C
T4 construct: also called ectodomain of human FcεR1α with C-term myc-myc-6×His tag
T4 chain: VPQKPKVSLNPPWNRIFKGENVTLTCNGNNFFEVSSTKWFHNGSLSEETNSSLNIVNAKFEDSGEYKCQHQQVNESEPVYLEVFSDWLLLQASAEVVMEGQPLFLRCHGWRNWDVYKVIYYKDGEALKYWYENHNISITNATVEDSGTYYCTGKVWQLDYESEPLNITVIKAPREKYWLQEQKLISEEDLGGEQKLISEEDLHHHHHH
Method: (§2) Equilibrium dissociation constants (KD) for human or cynomolgus FcεR1α ectodomain binding to purified anti-FcεR1α monoclonal antibodies (mAbs) and CD3×FcεR1α bispecific antibodies (bsAbs) were determined using a real-time surface plasmon resonance biosensor (SPR-Biacore), Biacore 8k. All binding studies were performed in 10 mM HEPES, 150 mM NaCl, 3 mM EDTA, and 0.05% v/v surfactant Tween-20, pH 7.4 (HBS-ET) running buffer at 25° C. and 37° C.
(§3) The Biacore CM4 sensor surface was first derivatized by amine coupling with a monoclonal mouse anti-human Fc antibody to capture approximately 500-900 RUs anti-FcεR1α monoclonal antibodies or anti-CD3×FcεR1α bispecific monoclonal antibodies. 1 RU (response unit) represents 1 pg of protein per mm², as defined by the manufacturer. The ectodomain of human and cynomolgus FcεR1α reagents were expressed with a C-term myc-myc-6×His tag-hFcεR1α.MMH (SEQ ID NO: 57) and mfFcεR1α.MMH (SEQ ID NO: 58). Different concentrations of FcεR1α reagents were prepared in HBS-ET running buffer (600 nM-7.4 nM; serially diluted by 3-fold) and injected over anti-human Fc captured anti-FcεR1α monoclonal antibodies or anti-CD3×FcεR1α bispecific monoclonal antibodies surfaces for 1 minute at a flow rate of 30 μL/minute. The dissociation of bound FcεR1α reagents was monitored for 4 minutes in HBS-ET running buffer. Association (kₐ) and dissociation (kd) rate constants were determined by fitting the real-time binding sensorgrams to a 1:1 binding model with mass transport limitation using Biacore 8k evaluation software. Binding dissociation equilibrium constants (KD) and dissociative half-lives (t½) were calculated from the kinetic rate constants as: […]

[8] = target: T4, hFcεR1α.MMH; assay: SPR (Biacore 8k), antibody captured on anti-human Fc, hFcεR1α.MMH injected, 37°C
Method: as §2, §3

[9] = target: T5, mfFcεR1α.MMH (cynomolgus (Macaca fascicularis)); assay: SPR (Biacore 8k), antibody captured on anti-human Fc, mfFcεR1α.MMH injected, 25°C
T5 construct: also called mfFceR1a.MMH; ectodomain of cynomolgus FcεR1α with C-term myc-myc-6×His tag
T5 chain: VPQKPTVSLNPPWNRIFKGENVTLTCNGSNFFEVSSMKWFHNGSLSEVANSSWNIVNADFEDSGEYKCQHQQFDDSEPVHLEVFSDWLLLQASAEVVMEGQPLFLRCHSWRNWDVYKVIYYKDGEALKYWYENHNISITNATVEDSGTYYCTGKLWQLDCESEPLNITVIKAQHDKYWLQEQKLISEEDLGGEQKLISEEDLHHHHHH
Method: as §2, §3

[10] = target: T5, mfFcεR1α.MMH; assay: SPR (Biacore 8k), antibody captured on anti-human Fc, mfFcεR1α.MMH injected, 37°C
Method: as §2, §3

[11] = target: T2, human FcεR1α expressed on cells; assay: flow cytometry, 70 nM antibody on HEK293/hFcεR1α/hFcεR1β/hFcεR1γ cells pre-incubated with 70 nM human IgE
Method: as §1

[12] = target: T3, monkey (cynomolgus) FcεR1α expressed on …; assay: flow cytometry, 70 nM antibody on HEK293/mfFcεR1α/hFcεR1β/hFcεR1γ cells pre-incubated with 70 nM human IgE
Method: as §1

T1 sequence (P07766 23-207 limits assumed, chain 1 of 4): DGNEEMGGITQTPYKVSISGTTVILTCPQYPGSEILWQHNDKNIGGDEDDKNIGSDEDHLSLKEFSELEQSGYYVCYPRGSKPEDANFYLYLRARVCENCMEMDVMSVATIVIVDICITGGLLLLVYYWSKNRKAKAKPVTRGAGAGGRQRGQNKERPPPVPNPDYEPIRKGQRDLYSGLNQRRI
T1 sequence (P04234 22-171 limits assumed, chain 2 of 4): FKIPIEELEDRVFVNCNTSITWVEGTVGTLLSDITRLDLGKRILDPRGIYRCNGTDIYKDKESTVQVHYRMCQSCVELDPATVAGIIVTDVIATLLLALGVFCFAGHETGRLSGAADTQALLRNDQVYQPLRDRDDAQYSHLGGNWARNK
T1 sequence (P20963 22-164 limits assumed, chain 3 of 4): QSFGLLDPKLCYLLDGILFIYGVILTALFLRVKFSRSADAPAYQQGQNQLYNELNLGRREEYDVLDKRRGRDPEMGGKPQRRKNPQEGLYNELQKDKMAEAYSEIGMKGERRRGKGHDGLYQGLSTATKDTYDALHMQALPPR
T1 sequence (P09693 23-182 limits assumed, chain 4 of 4): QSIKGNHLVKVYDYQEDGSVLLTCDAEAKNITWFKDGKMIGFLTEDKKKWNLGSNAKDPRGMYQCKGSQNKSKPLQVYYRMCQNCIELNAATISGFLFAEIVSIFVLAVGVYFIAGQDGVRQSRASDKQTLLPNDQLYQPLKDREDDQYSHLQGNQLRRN

EC50 [M], NFAT-luciferase in Jurkat/NFAT-luc with HEK293/hFcεR1α/hFcεR1β/hFcεR1γ cells, 10 nM IgE [1]: 4.9e-09 M | EC50 [M], NFAT-luciferase in Jurkat/NFAT-luc with HEK293/hFcεR1α/hFcεR1β/hFcεR1γ cells, No IgE [1]: 6.8e-10 M | Fold Activation, Jurkat/NFAT-luc with HEK293/hFcεR1α/hFcεR1β/hFcεR1γ cells, 10 nM IgE [1]: 25 fold | Fold Activation, Jurkat/NFAT-luc with HEK293/hFcεR1α/hFcεR1β/hFcεR1γ cells, No IgE [1]: 23 fold | EC80, cleaved caspase 3+ cleaved PARP+ HEK293/hFcεR1α/hFcεR1β/hFcεR1γ target cells with activated CD8+ T cells [2]: 0.126 nM | Maximum percent apoptotic cells, HEK293/hFcεR1α/hFcεR1β/hFcεR1γ target cells with activated CD8+ T cells [2]: 56.5% | EC50, decrease of primary human basophils within PBMC with activated CD8+ T cells [3]: 20 nM | Maximum percent basophil decrease, PBMC with activated CD8+ T cells [3]: 80.1% | Binding Ratio (MFI of Treated/MFI of Unstained) [4]: 48 | Binding Ratio (MFI of Treated/MFI of Unstained) [5]: 248 | Binding Ratio (MFI of Treated/MFI of Unstained) [6]: 142 | 600 nM hFcεR1α.MMH Bound (RU) [7]: 46 RU | Kd [7]: 303 nM | koff [7]: 0.02 s⁻¹ | kon [7]: 65900 M⁻¹ s⁻¹ | t½ [7]: 36 s | 600 nM hFcεR1α.MMH Bound (RU) [8]: 19 RU | Kd [8]: 1550 nM | koff [8]: 0.0991 s⁻¹ | kon [8]: 63900 M⁻¹ s⁻¹ | t½ [8]: 7.2 s | 600 nM mfFceR1a.MMH Bound (RU) [9]: 26 RU | Kd [9]: 467 nM | koff [9]: 0.0195 s⁻¹ | kon [9]: 41700 M⁻¹ s⁻¹ | t½ [9]: 36 s | 600 nM mfFceR1a.MMH Bound (RU) [10]: 10 RU | Kd [10]: 3350 nM | koff [10]: 0.0445 s⁻¹ | kon [10]: 13300 M⁻¹ s⁻¹ | t½ [10]: 15.6 s | Binding Ratio (MFI of Treated/MFI of Unstained) [11]: 201 | Binding Ratio (MFI of Treated/MFI of Unstained) [12]: 169
B1: bsAb24920D (bispecific antibody, human IgG4 S228P, kappa)
heavy 1: QVQLQESGPGLVKPSETLSLTCTVSGDSINDYYWSWLRQPPGKGLEWIGYIYYSGSTNYNPSLKSRVTISVDTSKNQFSLKLSSVTAADTAVYYCTRRNNWNYVRAFDIWGQGTMVTVSSASTKGPSVFPLAPCSRSTSESTAALGCLVKDYFPEPVTVSWNSGALTSGVHTFPAVLQSSGLYSLSSVVTVPSSSLGTKTYTCNVDHKPSNTKVDKRVESKYGPPCPPCPAPPVAGPSVFLFPPKPKDTLMISRTPEVTCVVVDVSQEDPEVQFNWYVDGVEVHNAKTKPREEQFNSTYRVVSVLTVLHQDWLNGKEYKCKVSNKGLPSSIEKTISKAKGQPREPQVYTLPPSQEEMTKNQVSLTCLVKGFYPSDIAVEWESNGQPENNYKTTPPVLDSDGSFFLYSRLTVDKSRWQEGNVFSCSVMHEALHNHYTQKSLSLSLGK
heavy 2: EVQLVESGGGLVQPGRSLRLSCAASGFTFDDYSMHWVRQAPGKGLEWVSGISWNSGSIGYADSVKGRFTISRDNAKNSLYLQMNSLRAEDTALYYCAKYGSGYGKFYYYGMDVWGQGTTVTVSSASTKGPSVFPLAPCSRSTSESTAALGCLVKDYFPEPVTVSWNSGALTSGVHTFPAVLQSSGLYSLSSVVTVPSSSLGTKTYTCNVDHKPSNTKVDKRVESKYGPPCPPCPAPPVAGPSVFLFPPKPKDTLMISRTPEVTCVVVDVSQEDPEVQFNWYVDGVEVHNAKTKPREEQFNSTYRVVSVLTVLHQDWLNGKEYKCKVSNKGLPSSIEKTISKAKGQPREPQVYTLPPSQEEMTKNQVSLTCLVKGFYPSDIAVEWESNGQPENNYKTTPPVLDSDGSFFLYSRLTVDKSRWQEGNVFSCSVMHEALHNRFTQKSLSLSPGK
light: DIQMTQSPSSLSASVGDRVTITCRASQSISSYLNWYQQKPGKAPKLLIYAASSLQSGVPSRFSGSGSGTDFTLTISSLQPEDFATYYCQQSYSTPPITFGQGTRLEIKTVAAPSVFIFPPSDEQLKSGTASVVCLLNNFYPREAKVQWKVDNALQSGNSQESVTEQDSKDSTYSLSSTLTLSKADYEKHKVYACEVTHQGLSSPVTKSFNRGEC
notes: IgG4 Fc domain; two distinct heavy chains with a common light chain; also called anti-FcεR1α×CD3 bispecific antibody; FcεR1α × hCD3

EC50 [M], NFAT-luciferase in Jurkat/NFAT-luc with HEK293/hFcεR1α/hFcεR1β/hFcεR1γ cells, 10 nM IgE [1]: 1.1e-09 M | EC50 [M], NFAT-luciferase in Jurkat/NFAT-luc with HEK293/hFcεR1α/hFcεR1β/hFcεR1γ cells, No IgE [1]: 2.3e-10 M | Fold Activation, Jurkat/NFAT-luc with HEK293/hFcεR1α/hFcεR1β/hFcεR1γ cells, 10 nM IgE [1]: 27 fold | Fold Activation, Jurkat/NFAT-luc with HEK293/hFcεR1α/hFcεR1β/hFcεR1γ cells, No IgE [1]: 24 fold | EC80, cleaved caspase 3+ cleaved PARP+ HEK293/hFcεR1α/hFcεR1β/hFcεR1γ target cells with activated CD8+ T cells [2]: 0.0613 nM | Maximum percent apoptotic cells, HEK293/hFcεR1α/hFcεR1β/hFcεR1γ target cells with activated CD8+ T cells [2]: 55.8% | EC50, decrease of primary human basophils within PBMC with activated CD8+ T cells [3]: 4 nM | Maximum percent basophil decrease, PBMC with activated CD8+ T cells [3]: 90.9% | Binding Ratio (MFI of Treated/MFI of Unstained) [4]: 94 | Binding Ratio (MFI of Treated/MFI of Unstained) [5]: 253 | Binding Ratio (MFI of Treated/MFI of Unstained) [6]: 169 | 600 nM hFcεR1α.MMH Bound (RU) [7]: 69 RU | Kd [7]: 274 nM | koff [7]: 0.0212 s⁻¹ | kon [7]: 77400 M⁻¹ s⁻¹ | t½ [7]: 32.4 s | 600 nM hFcεR1α.MMH Bound (RU) [8]: 40 RU | Kd [8]: 977 nM | koff [8]: 0.0934 s⁻¹ | kon [8]: 95600 M⁻¹ s⁻¹ | t½ [8]: 7.2 s | 600 nM mfFceR1a.MMH Bound (RU) [9]: 60 RU | Kd [9]: 256 nM | koff [9]: 0.0161 s⁻¹ | kon [9]: 62900 M⁻¹ s⁻¹ | t½ [9]: 42 s | 600 nM mfFceR1a.MMH Bound (RU) [10]: 37 RU | Kd [10]: 520 nM | koff [10]: 0.0445 s⁻¹ | kon [10]: 85600 M⁻¹ s⁻¹ | t½ [10]: 15.6 s | Binding Ratio (MFI of Treated/MFI of Unstained) [11]: 295 | Binding Ratio (MFI of Treated/MFI of Unstained) [12]: 284
B2: bsAb24921D (bispecific antibody, human IgG4 S228P, kappa)
heavy 1: QVQVQESGPRLVKPSETLSLTCTVSGGSMSSYYWIWIRQPPGKELEWIGYIYYSGSTNYNPSLKSRATISVDTSKNQFSLNLNSVTAADTAVYYCARRNNWNYVRAFDIWGQGTMVTVSSASTKGPSVFPLAPCSRSTSESTAALGCLVKDYFPEPVTVSWNSGALTSGVHTFPAVLQSSGLYSLSSVVTVPSSSLGTKTYTCNVDHKPSNTKVDKRVESKYGPPCPPCPAPPVAGPSVFLFPPKPKDTLMISRTPEVTCVVVDVSQEDPEVQFNWYVDGVEVHNAKTKPREEQFNSTYRVVSVLTVLHQDWLNGKEYKCKVSNKGLPSSIEKTISKAKGQPREPQVYTLPPSQEEMTKNQVSLTCLVKGFYPSDIAVEWESNGQPENNYKTTPPVLDSDGSFFLYSRLTVDKSRWQEGNVFSCSVMHEALHNHYTQKSLSLSLGK
heavy 2: B1 heavy 2
light: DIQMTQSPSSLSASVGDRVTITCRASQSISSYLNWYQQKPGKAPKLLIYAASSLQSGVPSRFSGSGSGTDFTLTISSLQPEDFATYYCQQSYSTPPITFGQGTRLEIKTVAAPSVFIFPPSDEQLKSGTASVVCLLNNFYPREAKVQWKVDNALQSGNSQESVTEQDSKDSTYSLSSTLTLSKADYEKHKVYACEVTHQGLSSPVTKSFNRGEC
notes: as for B1
